Results as given in the supplement of paper PMC9112550, “Optimization of the antimicrobial peptide Bac7 by deep mutational scanning” (BMC Biology, 2022).

test system: Escherichia coli TOP10; assay: shrunken log2 fold change of peptide-encoding DNA abundance (4.5 h post-induction vs induction); higher = less antimicrobial activity (less host growth inhibition); conditions: time post-induction: 4.5 h; library: site-saturation at positions 5, 18, 19, 20
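Also: peptides expressed intracellularly from a pBAD plasmid library in pooled LB shake-flask culture, induced with 0.3% L-arabinose, DNA abundance read by NGS, three biological replicates, DESeq2 with apeglm shrinkage.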

Row | Sequence | shrunken log2 fold change
1 | RRIRIRPPRLPRPRPRPRVPPRP | 1.5
2 | RRIRLRPPRLPRPRPRPYDAPRP | -0.211
3 | RRIRERPPRLPRPRPRPADVPRP | 0.00489
4 | RRIRDRPPRLPRPRPRPTINPRP | 0.135
5 | RRIRKRPPRLPRPRPRPLHAPRP | 0.449
6 | RRIRRRPPRLPRPRPRPQCRPRP | 0.123
7 | RRIRVRPPRLPRPRPRPGMCPRP | 0.00908
8 | RRIRYRPPRLPRPRPRPGVPPRP | 0.241
9 | RRIRQRPPRLPRPRPRPEKMPRP | -0.145
10 | RRIRTRPPRLPRPRPRPKVGPRP | 0.2
11 | RRIRQRPPRLPRPRPRPWQDPRP | 0.07
12 | RRIRVRPPRLPRPRPRPNTDPRP | -0.626
13 | RRIRFRPPRLPRPRPRPGREPRP | 0.0157
14 | RRIRFRPPRLPRPRPRPSVSPRP | -0.2
15 | RRIRQRPPRLPRPRPRPHHAPRP | -0.00332
16 | RRIRLRPPRLPRPRPRPRGPPRP | 0.865
17 | RRIRPRPPRLPRPRPRPLAAPRP | 0.767
18 | RRIRHRPPRLPRPRPRPLDPPRP | -0.331
19 | RRIRHRPPRLPRPRPRPVHDPRP | 0.079
20 | RRIRHRPPRLPRPRPRPLFNPRP | -0.58
21 | RRIRDRPPRLPRPRPRPKPIPRP | 0.106
22 | RRIRHRPPRLPRPRPRPSFQPRP | -0.652
23 | RRIRLRPPRLPRPRPRPCTEPRP | -0.0105
24 | RRIRDRPPRLPRPRPRPITQPRP | 0.000804
25 | RRIRYRPPRLPRPRPRPPVTPRP | -0.0969

Row | Sequence | shrunken log2 fold change
26 | RRIRSRPPRLPRPRPRPVVNPRP | 0.0966
27 | RRIRPRPPRLPRPRPRPLNMPRP | -0.432
28 | RRIRARPPRLPRPRPRPWGAPRP | 0.401
29 | RRIRFRPPRLPRPRPRPEHQPRP | -0.1
30 | RRIRWRPPRLPRPRPRPLKAPRP | 0.749
31 | RRIRWRPPRLPRPRPRPQRKPRP | 0.46
32 | RRIRMRPPRLPRPRPRPNTKPRP | -0.0097
33 | RRIRTRPPRLPRPRPRPHYAPRP | -0.11
34 | RRIRCRPPRLPRPRPRPKSTPRP | -0.137
35 | RRIRWRPPRLPRPRPRPCTNPRP | -0.0757
36 | RRIRFRPPRLPRPRPRPEYHPRP | -0.202
37 | RRIRCRPPRLPRPRPRPLRSPRP | 0.482
38 | RRIRQRPPRLPRPRPRPWIAPRP | -0.161
39 | RRIRLRPPRLPRPRPRPCYDPRP | 0.00693
40 | RRIRFRPPRLPRPRPRPITCPRP | -1.15
41 | RRIRGRPPRLPRPRPRPTIFPRP | 0.127
42 | RRIRQRPPRLPRPRPRPLFHPRP | -0.733
43 | RRIRKRPPRLPRPRPRPALEPRP | -0.108
44 | RRIRSRPPRLPRPRPRPRSTPRP | 0.0523
45 | RRIRPRPPRLPRPRPRPCTNPRP | -0.0219
46 | RRIRFRPPRLPRPRPRPMAWPRP | -0.0344
47 | RRIRDRPPRLPRPRPRPEQPPRP | -0.0458
48 | RRIRSRPPRLPRPRPRPLMPPRP | 0.121
49 | RRIRYRPPRLPRPRPRPSQEPRP | -0.748
50 | RRIRNRPPRLPRPRPRPYEPPRP | -0.0287

Row | Sequence | shrunken log2 fold change
51 | RRIRHRPPRLPRPRPRPTQRPRP | 0.462
52 | RRIRFRPPRLPRPRPRPRQMPRP | -0.0877
53 | RRIRDRPPRLPRPRPRPTLMPRP | 0.114
54 | RRIRYRPPRLPRPRPRPDVRPRP | -0.0526
55 | RRIRERPPRLPRPRPRPIFYPRP | -0.385
56 | RRIRHRPPRLPRPRPRPSPDPRP | -0.293
57 | RRIRKRPPRLPRPRPRPNNTPRP | -0.243
58 | RRIRARPPRLPRPRPRPVMPPRP | 0.457
59 | RRIRKRPPRLPRPRPRPFIAPRP | -0.0583
60 | RRIRIRPPRLPRPRPRPKLNPRP | 0.0573
61 | RRIRLRPPRLPRPRPRPWDTPRP | 0.0949
62 | RRIRDRPPRLPRPRPRPPNRPRP | 0.789
63 | RRIRFRPPRLPRPRPRPFEAPRP | -0.105
64 | RRIRTRPPRLPRPRPRPTDTPRP | -0.0527
65 | RRIRIRPPRLPRPRPRPAWDPRP | -0.0871
66 | RRIRPRPPRLPRPRPRPKRQPRP | 0.0603
67 | RRIRARPPRLPRPRPRPYCMPRP | -0.495
68 | RRIRVRPPRLPRPRPRPYWHPRP | -0.636
69 | RRIRARPPRLPRPRPRPHLMPRP | 0.0747
70 | RRIRYRPPRLPRPRPRPVLEPRP | -0.0835
71 | RRIRYRPPRLPRPRPRPWNMPRP | -0.186
72 | RRIRSRPPRLPRPRPRPDQQPRP | 0.0193
73 | RRIRCRPPRLPRPRPRPWEKPRP | 0.0651
74 | RRIRCRPPRLPRPRPRPSIFPRP | -0.575
75 | RRIRMRPPRLPRPRPRPKMIPRP | -0.0167

Row | Sequence | shrunken log2 fold change
76 | RRIRCRPPRLPRPRPRPMNNPRP | -0.537
77 | RRIRQRPPRLPRPRPRPMHQPRP | -0.195
78 | RRIRLRPPRLPRPRPRPNFAPRP | 0.0393
79 | RRIRERPPRLPRPRPRPWGPPRP | -0.0024
80 | RRIRCRPPRLPRPRPRPQTIPRP | -0.516
81 | RRIRTRPPRLPRPRPRPEFHPRP | -0.351
82 | RRIRNRPPRLPRPRPRPKFRPRP | 0.00344
83 | RRIRQRPPRLPRPRPRPMNKPRP | -0.169
84 | RRIRPRPPRLPRPRPRPYFPPRP | -0.26
85 | RRIRRRPPRLPRPRPRPWTKPRP | 0.124
86 | RRIRYRPPRLPRPRPRPGIWPRP | 0.138
87 | RRIRYRPPRLPRPRPRPNFGPRP | -0.126
88 | RRIRDRPPRLPRPRPRPHQRPRP | 0.0159
89 | RRIRVRPPRLPRPRPRPQWWPRP | 0.0756
90 | RRIRYRPPRLPRPRPRPKIWPRP | -0.475
91 | RRIRLRPPRLPRPRPRPCPWPRP | -0.129
92 | RRIRNRPPRLPRPRPRPTVSPRP | -0.268
93 | RRIRTRPPRLPRPRPRPCCFPRP | -0.114
94 | RRIRFRPPRLPRPRPRPQYCPRP | -0.943
95 | RRIRIRPPRLPRPRPRPSHTPRP | -0.595
96 | RRIRQRPPRLPRPRPRPMWEPRP | 0.00271
97 | RRIRERPPRLPRPRPRPPGSPRP | -0.0206
98 | RRIRMRPPRLPRPRPRPVYQPRP | -0.372
99 | RRIRCRPPRLPRPRPRPQFKPRP | -0.562
100 | RRIRLRPPRLPRPRPRPKTTPRP | 0.196

Row | Sequence | shrunken log2 fold change
101 | RRIRMRPPRLPRPRPRPSSKPRP | 1.87
102 | RRIRVRPPRLPRPRPRPISVPRP | -0.131
103 | RRIRMRPPRLPRPRPRPVSWPRP | 0.553
104 | RRIRPRPPRLPRPRPRPLDCPRP | 0.0595
105 | RRIRCRPPRLPRPRPRPTRHPRP | 0.161
106 | RRIRCRPPRLPRPRPRPQNMPRP | -0.78
107 | RRIRARPPRLPRPRPRPEPIPRP | 0.716
108 | RRIRCRPPRLPRPRPRPCVTPRP | 0.0974
109 | RRIRIRPPRLPRPRPRPGCMPRP | -0.134
110 | RRIRLRPPRLPRPRPRPQASPRP | 0.0594
111 | RRIRMRPPRLPRPRPRPMNNPRP | -0.411
112 | RRIRPRPPRLPRPRPRPEACPRP | 0.321
113 | RRIRSRPPRLPRPRPRPDYMPRP | -0.355
114 | RRIRPRPPRLPRPRPRPKCQPRP | 0.0931
115 | RRIRERPPRLPRPRPRPEYYPRP | -0.00813
116 | RRIRQRPPRLPRPRPRPEFHPRP | -0.0296
117 | RRIRDRPPRLPRPRPRPSYPPRP | -0.2
118 | RRIRCRPPRLPRPRPRPGKKPRP | -0.0838
119 | RRIRIRPPRLPRPRPRPMMCPRP | 0.0233
120 | RRIRRRPPRLPRPRPRPFGSPRP | -0.0013
121 | RRIRGRPPRLPRPRPRPLNQPRP | 0.725
122 | RRIRERPPRLPRPRPRPNVRPRP | 0.0403
123 | RRIRFRPPRLPRPRPRPFNWPRP | -0.975
124 | RRIRFRPPRLPRPRPRPCGSPRP | 0.06
125 | RRIRQRPPRLPRPRPRPCMKPRP | -0.0118

Row | Sequence | shrunken log2 fold change
126 | RRIRIRPPRLPRPRPRPMGLPRP | -0.0686
127 | RRIRYRPPRLPRPRPRPYFEPRP | -0.58
128 | RRIRIRPPRLPRPRPRPFKVPRP | -0.0829
129 | RRIRDRPPRLPRPRPRPHPNPRP | -0.662
130 | RRIRQRPPRLPRPRPRPCGAPRP | 0.133
131 | RRIRDRPPRLPRPRPRPNGNPRP | -0.169
132 | RRIRTRPPRLPRPRPRPQRMPRP | -0.272
133 | RRIRSRPPRLPRPRPRPHHEPRP | -0.0237
134 | RRIRPRPPRLPRPRPRPAIYPRP | -0.017
135 | RRIRKRPPRLPRPRPRPIKCPRP | -0.29
136 | RRIRERPPRLPRPRPRPFLWPRP | 0.155
137 | RRIRYRPPRLPRPRPRPKMDPRP | 0.0399
138 | RRIRDRPPRLPRPRPRPIKTPRP | 0.058
139 | RRIRGRPPRLPRPRPRPKKWPRP | -0.00138
140 | RRIRSRPPRLPRPRPRPQDHPRP | -0.794
141 | RRIRGRPPRLPRPRPRPYNVPRP | -0.126
142 | RRIRFRPPRLPRPRPRPVKIPRP | -0.0378
143 | RRIRSRPPRLPRPRPRPFPVPRP | -0.516
144 | RRIRERPPRLPRPRPRPHPEPRP | -0.073
145 | RRIRYRPPRLPRPRPRPFMNPRP | -0.0199
146 | RRIRSRPPRLPRPRPRPQCFPRP | -0.282
147 | RRIRCRPPRLPRPRPRPVGCPRP | 0.204
148 | RRIRHRPPRLPRPRPRPGIVPRP | -0.286
149 | RRIRCRPPRLPRPRPRPLAMPRP | 0.062
150 | RRIRCRPPRLPRPRPRPQNRPRP | -0.111
